Read-outs that look alike come from different tables or passages of the source.
How the values were obtained:
Experiment in all cases: EMSA
TDP43(WT) [1] = target: T1, TDP43(WT) (UniProt Q13148 1-414)
TDP43(WT) [2] = target: T1, TDP43(WT); remark: listed apart in the source
TDP43(WT) [3] = target: T1, TDP43(WT); remark: listed apart in the source

T1 sequence (Q13148 whole entry): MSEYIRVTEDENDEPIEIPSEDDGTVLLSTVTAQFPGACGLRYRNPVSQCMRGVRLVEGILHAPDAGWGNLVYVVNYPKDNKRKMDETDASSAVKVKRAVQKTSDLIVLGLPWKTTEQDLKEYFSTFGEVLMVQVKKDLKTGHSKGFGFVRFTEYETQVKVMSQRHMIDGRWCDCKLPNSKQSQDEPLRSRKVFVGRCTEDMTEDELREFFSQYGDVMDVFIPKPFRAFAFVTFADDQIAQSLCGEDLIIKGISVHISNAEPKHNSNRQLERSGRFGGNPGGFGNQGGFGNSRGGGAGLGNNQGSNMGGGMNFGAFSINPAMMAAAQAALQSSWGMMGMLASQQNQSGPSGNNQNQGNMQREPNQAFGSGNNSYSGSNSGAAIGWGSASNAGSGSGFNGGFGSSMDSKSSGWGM

Row | Binder | binding result (TDP43(WT) [1]) | other results
1 | ATATATATATATATATATATATAT (ssDNA) [(AT)12] | no binding | –
2 | GCGCGCGCGCGCGCGCGCGCGCGC (ssDNA) [(GC)12] | no binding | –
3 | UGUGUGUGUGUGUGUGUGUGUGUG (ssRNA) [(UG)12] | – | Kd (TDP43(WT) [2]): 0.35 ± 0.1 nM
4 | TGTGTGTGTGTGTGTGTGTGTGTG (ssDNA) [(TG)12] | – | Kd (TDP43(WT) [3]): 7.4 ± 0.34 nM
